Assay results from patent publication US20080274096.
Entries after “also recorded” stand apart in the source; their conditions may differ.

Assays:
[1] = biological target: amyloid β peptide1-40 in guinea pig plasma, Q60495
[2] = biological target: amyloid β peptide1-42 in guinea pig plasma, Q60495
[3] = biological target: Amyloid β1-40 peptide (Bachem)

B1: Recombinant human Neprilysin (R&D Systems) (protein)
chain: YDDGICKSSDCIKSAARLIQNMDATTEPCTDFFKYACGGWLKRNVIPETSSRYGNFDILRDELEVVLKDVLQEPKTEDIVAVQKAKALYRSCINESAIDSRGGEPLLKLLPDIYGWPVATENWEQKYGASWTAEKAIAQLNSKYGKKVLINLFVGTDDKNSVNHVIHIDQPRLGLPSRDYYECTGIYKEACTAYVDFMISVARLIRQEERLPIDENQLALEMNKVMELEKEIANATAKPEDRNDPMLLYNKMTLAQIQNNFSLEINGKPFSWLNFTNEIMSTVNISITNEEDVVVYAPEYLTKLKPILTKYSARDLQNLMSWRFIMDLVSSLSRTYKESRNAFRKALYGTTSETATWRRCANYVNGNMENAVGRLYVEAAFAGESKHVVEDLIAQIREVFIQTLDDLTWMDAETKKRAEEKALAIKERIGYPDDIVSNDNKLNNEYLELNYKEDEYFENIIQNLKFSQSKQLKKLREKVDKDEWISGAAVVNAFYSSGRNQIVFPAGILQPPFFSAQQSNSLNYGGIGMVIGHEITHGFDDNGRNFNKDGDLVDWWTQQSASNFKEQSQCMVYQYGNFSWDLAGGQHLNGINTLGENIADNGGLGQAYRAYQNYIKKNGEEKLLPGLDLNHKQLFFLNFAQVWCGTYRPEYAVNSIKTDVHSPGNFRIIGTLQNSAEFSEAFHCRKNSYMNPEKKCRVW
degradation of Aβ1-40 in guinea pig plasma (ELISA) [1]: Neprilysin degrades Aβ1-40 and Aβ1-42 in a time-dependent manner; also recorded: Neprilysin degrades Aβ1-40 in a dose dependent manner | degradation of Aβ1-42 in guinea pig plasma (ELISA) [2]: Neprilysin degrades Aβ1-40 and Aβ1-42 in a time-dependent manner | Amyloid β1-40 peptide degradation (percentage of peptide left, electrochemiluminescence immunoassay) [3]: degraded 88% of Amyloid β1-40 peptide (1 nM) after 3 hours incubation at 37 °C
